Experimental data published in article PMC9482650, “Quantitative fragmentomics allow affinity mapping of interactomes” (Nature Communications, 2022).

T1: APBA1_1, Q02410
T1 sequence (Q02410 651-752, limits assumed, looked up): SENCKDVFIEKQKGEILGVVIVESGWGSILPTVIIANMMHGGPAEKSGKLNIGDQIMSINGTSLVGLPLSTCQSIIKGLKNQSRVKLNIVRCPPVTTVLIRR

T2: APBA1_2, Q02410
T2 sequence (Q02410 742-832, limits assumed, looked up): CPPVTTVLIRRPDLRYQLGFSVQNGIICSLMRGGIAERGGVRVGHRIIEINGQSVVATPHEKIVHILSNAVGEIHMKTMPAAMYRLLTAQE

T3: ARHGAP21, Q5T5U3
T3 sequence (Q5T5U3 45-169, limits assumed, looked up): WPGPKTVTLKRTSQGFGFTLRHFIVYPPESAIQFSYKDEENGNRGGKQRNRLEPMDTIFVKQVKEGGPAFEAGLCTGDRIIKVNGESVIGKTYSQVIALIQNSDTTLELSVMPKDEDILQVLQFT

T4: ARHGEF11, O15085
T4 sequence (O15085 42-136, limits assumed, looked up): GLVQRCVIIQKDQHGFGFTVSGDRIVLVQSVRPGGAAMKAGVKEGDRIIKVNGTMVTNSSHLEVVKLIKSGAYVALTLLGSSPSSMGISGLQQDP

T5: LIN7C, Q9NUP9
T5 sequence (Q9NUP9 88-185, limits assumed, looked up): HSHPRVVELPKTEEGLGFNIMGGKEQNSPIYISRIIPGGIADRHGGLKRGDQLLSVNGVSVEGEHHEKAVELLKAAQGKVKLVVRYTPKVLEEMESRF

T6: LNX2_3, Q8N448
T6 sequence (Q8N448 463-564, limits assumed, looked up): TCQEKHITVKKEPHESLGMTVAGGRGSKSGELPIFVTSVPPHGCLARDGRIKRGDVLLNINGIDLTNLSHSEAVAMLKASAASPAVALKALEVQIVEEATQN

T7: LRRC7, Q96NW7
T7 sequence (Q96NW7 1440-1537, limits assumed, looked up): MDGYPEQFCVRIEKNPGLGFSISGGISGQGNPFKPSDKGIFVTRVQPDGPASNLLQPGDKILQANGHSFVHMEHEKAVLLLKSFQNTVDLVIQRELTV

T8: RAPGEF6, Q8TEU7
T8 sequence (Q8TEU7 525-625, limits assumed, looked up): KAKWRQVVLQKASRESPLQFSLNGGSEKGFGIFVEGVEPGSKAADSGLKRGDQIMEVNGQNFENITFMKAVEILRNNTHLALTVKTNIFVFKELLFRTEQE

T9: SHANK1, Q9Y566
T9 sequence (Q9Y566 658-767, limits assumed, looked up): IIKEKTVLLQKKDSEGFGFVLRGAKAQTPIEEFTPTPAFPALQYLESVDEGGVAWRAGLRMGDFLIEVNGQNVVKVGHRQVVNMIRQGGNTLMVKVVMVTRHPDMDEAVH

T10: TJP3_3, O95049
T10 sequence (O95049 375-456, limits assumed, looked up): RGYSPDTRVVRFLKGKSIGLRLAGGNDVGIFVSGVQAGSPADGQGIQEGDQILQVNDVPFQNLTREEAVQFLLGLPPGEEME

B1: EGLN1, Q9GZT9 (peptide)
chain: PSDSVGKDVF
B2: CD46, P15529 (peptide)
chain: THREVKFTSL
B3: NRXN3, Q9HDB5 (peptide)
chain: QKNKDREYYV

Molecular target: T1, APBA1_1, Q02410
Assay: holdup assay
Design: key: below the threshold = too weak to quantify, mostly under pKd 3.1 to 4
Settings: plain residues with an end cap or a label only (N-terminal biotin on a linker: ado-ado)

pKd | Binder
below the threshold | B1
below the threshold | B2
below the threshold | B3

Molecular target: T2, APBA1_2, Q02410
Assay: holdup assay
Design: key: below the threshold = too weak to quantify, mostly under pKd 3.1 to 4
Settings: plain residues with an end cap or a label only (N-terminal biotin on a linker: ado-ado)

pKd | Binder
below the threshold | B1
3.64 | B2
3.99 | B3

Molecular target: T3, ARHGAP21, Q5T5U3
Assay: holdup assay
Design: key: below the threshold = too weak to quantify, mostly under pKd 3.1 to 4
Settings: plain residues with an end cap or a label only (N-terminal biotin on a linker: ado-ado)

pKd | Binder
3.47 | B1
below the threshold | B2
4.2 | B3

Molecular target: T4, ARHGEF11, O15085
Assay: holdup assay
Design: key: below the threshold = too weak to quantify, mostly under pKd 3.1 to 4
Settings: plain residues with an end cap or a label only (N-terminal biotin on a linker: ado-ado)

pKd | Binder
below the threshold | B1
4.75 | B2
4.2 | B3

Molecular target: DLG2_3, Q15700
Assay: holdup assay
Design: key: below the threshold = too weak to quantify, mostly under pKd 3.1 to 4
Settings: plain residues with an end cap or a label only (N-terminal biotin on a linker: ado-ado)

pKd | Binder
3.57 | B1
4.38 | B2
below the threshold | B3

Molecular target: DLG4_1, P78352
Assay: holdup assay
Design: key: below the threshold = too weak to quantify, mostly under pKd 3.1 to 4
Settings: plain residues with an end cap or a label only (N-terminal biotin on a linker: ado-ado)

Chain of DLG4_1, P78352 (P78352 62-152): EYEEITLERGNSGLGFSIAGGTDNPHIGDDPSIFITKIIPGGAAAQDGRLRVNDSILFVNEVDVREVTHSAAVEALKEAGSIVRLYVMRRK

pKd | Binder
below the threshold | B1
below the threshold | B2
below the threshold | B3

Molecular target: FRMPD2_1, Q68DX3
Assay: holdup assay
Design: key: below the threshold = too weak to quantify, mostly under pKd 3.1 to 4
Settings: plain residues with an end cap or a label only (N-terminal biotin on a linker: ado-ado)

Chain of FRMPD2_1, Q68DX3 (Q68DX3 770-861): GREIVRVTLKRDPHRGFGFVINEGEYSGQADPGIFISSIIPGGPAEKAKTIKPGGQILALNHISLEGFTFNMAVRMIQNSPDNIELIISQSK

pKd | Binder
below the threshold | B1
below the threshold | B2
3.7 | B3

Molecular target: FRMPD2_2, Q68DX3
Assay: holdup assay
Design: key: below the threshold = too weak to quantify, mostly under pKd 3.1 to 4
Settings: plain residues with an end cap or a label only (N-terminal biotin on a linker: ado-ado)

Chain of FRMPD2_2, Q68DX3 (Q68DX3 944-1038): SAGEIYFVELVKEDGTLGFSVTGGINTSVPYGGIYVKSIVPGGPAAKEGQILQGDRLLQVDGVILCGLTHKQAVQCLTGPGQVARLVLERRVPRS

pKd | Binder
below the threshold | B1
below the threshold | B2
3.78 | B3

Molecular target: GRID2IP_1, A4D2P6
Assay: holdup assay
Design: key: below the threshold = too weak to quantify, mostly under pKd 3.1 to 4
Settings: plain residues with an end cap or a label only (N-terminal biotin on a linker: ado-ado)

Chain of GRID2IP_1, A4D2P6 (A4D2P6 1-87): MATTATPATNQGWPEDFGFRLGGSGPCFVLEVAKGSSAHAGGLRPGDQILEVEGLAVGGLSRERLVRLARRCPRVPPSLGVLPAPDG

pKd | Binder
below the threshold | B1
below the threshold | B2
below the threshold | B3

Molecular target: Inadl_2, Q8NI35
Assay: holdup assay
Design: key: below the threshold = too weak to quantify, mostly under pKd 3.1 to 4
Settings: plain residues with an end cap or a label only (N-terminal biotin on a linker: ado-ado)

Chain of Inadl_2, Q8NI35 (Q8NI35 238-335): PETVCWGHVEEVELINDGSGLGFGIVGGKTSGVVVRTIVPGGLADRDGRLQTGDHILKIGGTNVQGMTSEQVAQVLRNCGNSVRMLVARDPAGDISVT

pKd | Binder
below the threshold | B1
below the threshold | B2
4.97 | B3

Molecular target: Inadl_4, Q8NI35
Assay: holdup assay
Design: key: below the threshold = too weak to quantify, mostly under pKd 3.1 to 4
Settings: plain residues with an end cap or a label only (N-terminal biotin on a linker: ado-ado)

Chain of Inadl_4, Q8NI35 (Q8NI35 547-651): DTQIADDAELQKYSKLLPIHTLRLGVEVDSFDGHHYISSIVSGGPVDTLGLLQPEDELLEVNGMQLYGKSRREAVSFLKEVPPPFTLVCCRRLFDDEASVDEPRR

pKd | Binder
below the threshold | B1
below the threshold | B2
below the threshold | B3

Molecular target: Inadl_8, Q8NI35
Assay: holdup assay
Design: key: below the threshold = too weak to quantify, mostly under pKd 3.1 to 4
Settings: plain residues with an end cap or a label only (N-terminal biotin on a linker: ado-ado)

Chain of Inadl_8, Q8NI35 (Q8NI35 1425-1530): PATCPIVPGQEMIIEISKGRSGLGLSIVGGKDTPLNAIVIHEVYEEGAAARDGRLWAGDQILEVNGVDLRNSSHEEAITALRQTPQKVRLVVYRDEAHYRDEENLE

pKd | Binder
below the threshold | B1
3.53 | B2
3.48 | B3

Molecular target: LDB3, O75112
Assay: holdup assay
Design: key: below the threshold = too weak to quantify, mostly under pKd 3.1 to 4
Settings: plain residues with an end cap or a label only (N-terminal biotin on a linker: ado-ado)

Chain of LDB3, O75112 (O75112 1-94): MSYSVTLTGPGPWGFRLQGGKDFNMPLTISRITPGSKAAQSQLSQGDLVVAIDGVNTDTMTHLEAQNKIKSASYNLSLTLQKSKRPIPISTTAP

pKd | Binder
below the threshold | B1
below the threshold | B2
below the threshold | B3

Molecular target: T5, LIN7C, Q9NUP9
Assay: holdup assay
Design: key: below the threshold = too weak to quantify, mostly under pKd 3.1 to 4
Settings: plain residues with an end cap or a label only (N-terminal biotin on a linker: ado-ado)

pKd | Binder
below the threshold | B1
below the threshold | B2
3.59 | B3

Molecular target: T6, LNX2_3, Q8N448
Assay: holdup assay
Design: key: below the threshold = too weak to quantify, mostly under pKd 3.1 to 4
Settings: plain residues with an end cap or a label only (N-terminal biotin on a linker: ado-ado)

pKd | Binder
below the threshold | B1
below the threshold | B2
below the threshold | B3

Molecular target: T7, LRRC7, Q96NW7
Assay: holdup assay
Design: key: below the threshold = too weak to quantify, mostly under pKd 3.1 to 4
Settings: plain residues with an end cap or a label only (N-terminal biotin on a linker: ado-ado)

pKd | Binder
below the threshold | B1
below the threshold | B2
below the threshold | B3

Molecular target: MAGI2_3, Q86UL8
Assay: holdup assay
Design: key: below the threshold = too weak to quantify, mostly under pKd 3.1 to 4
Settings: plain residues with an end cap or a label only (N-terminal biotin on a linker: ado-ado)

Chain of MAGI2_3, Q86UL8 (Q86UL8 600-682): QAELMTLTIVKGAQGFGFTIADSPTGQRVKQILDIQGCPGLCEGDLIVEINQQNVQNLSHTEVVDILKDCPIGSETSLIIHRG

pKd | Binder
below the threshold | B1
below the threshold | B2
below the threshold | B3

Molecular target: MAGI2_4, Q86UL8
Assay: holdup assay
Design: key: below the threshold = too weak to quantify, mostly under pKd 3.1 to 4
Settings: plain residues with an end cap or a label only (N-terminal biotin on a linker: ado-ado)

Chain of MAGI2_4, Q86UL8 (Q86UL8 772-865): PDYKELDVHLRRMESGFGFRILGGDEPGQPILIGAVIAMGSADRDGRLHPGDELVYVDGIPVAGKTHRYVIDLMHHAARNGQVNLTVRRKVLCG

pKd | Binder
below the threshold | B1
below the threshold | B2
3.8 | B3

Molecular target: MAGI3_2, Q5TCQ9
Assay: holdup assay
Design: key: below the threshold = too weak to quantify, mostly under pKd 3.1 to 4
Settings: plain residues with an end cap or a label only (N-terminal biotin on a linker: ado-ado)

Chain of MAGI3_2, Q5TCQ9 (Q5TCQ9 398-503): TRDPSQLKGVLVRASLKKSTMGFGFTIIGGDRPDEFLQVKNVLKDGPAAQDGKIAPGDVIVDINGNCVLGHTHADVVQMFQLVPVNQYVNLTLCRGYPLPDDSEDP

pKd | Binder
below the threshold | B1
below the threshold | B2
4.75 | B3

Molecular target: NHERF4_1, Q86UT5-2
Assay: holdup assay
Design: key: below the threshold = too weak to quantify, mostly under pKd 3.1 to 4
Settings: plain residues with an end cap or a label only (N-terminal biotin on a linker: ado-ado)

Chain of NHERF4_1, Q86UT5-2 (Q86UT5 other isoform, or with tags, fused parts or gaps): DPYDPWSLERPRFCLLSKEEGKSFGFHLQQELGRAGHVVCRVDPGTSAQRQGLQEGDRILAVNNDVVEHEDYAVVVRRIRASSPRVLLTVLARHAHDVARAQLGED

pKd | Binder
below the threshold | B1
4.28 | B2
below the threshold | B3

Molecular target: NHERF4_2, Q86UT5
Assay: holdup assay
Design: key: below the threshold = too weak to quantify, mostly under pKd 3.1 to 4
Settings: plain residues with an end cap or a label only (N-terminal biotin on a linker: ado-ado)

Chain of NHERF4_2, Q86UT5 (Q86UT5 220-308): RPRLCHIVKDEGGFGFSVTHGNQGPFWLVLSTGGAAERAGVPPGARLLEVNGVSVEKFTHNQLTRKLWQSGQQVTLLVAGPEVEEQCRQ

pKd | Binder
below the threshold | B1
below the threshold | B2
below the threshold | B3

Molecular target: PARD3_3, Q8TEW0
Assay: holdup assay
Design: key: below the threshold = too weak to quantify, mostly under pKd 3.1 to 4
Settings: plain residues with an end cap or a label only (N-terminal biotin on a linker: ado-ado)

Chain of PARD3_3, Q8TEW0 (Q8TEW0 582-685): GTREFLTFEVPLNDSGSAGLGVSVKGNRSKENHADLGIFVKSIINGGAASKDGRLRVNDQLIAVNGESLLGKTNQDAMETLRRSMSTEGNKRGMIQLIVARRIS

pKd | Binder
below the threshold | B1
below the threshold | B2
4.59 | B3

Molecular target: PDLIM1, O00151
Assay: holdup assay
Design: key: below the threshold = too weak to quantify, mostly under pKd 3.1 to 4
Settings: plain residues with an end cap or a label only (N-terminal biotin on a linker: ado-ado)

Chain of PDLIM1, O00151 (O00151 1-87): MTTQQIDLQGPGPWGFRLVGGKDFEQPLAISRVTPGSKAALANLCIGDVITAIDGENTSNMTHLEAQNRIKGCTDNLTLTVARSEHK

pKd | Binder
below the threshold | B1
below the threshold | B2
below the threshold | B3

Molecular target: PTPN3, P26045
Assay: holdup assay
Design: key: below the threshold = too weak to quantify, mostly under pKd 3.1 to 4
Settings: plain residues with an end cap or a label only (N-terminal biotin on a linker: ado-ado)

Chain of PTPN3, P26045 (P26045 505-587): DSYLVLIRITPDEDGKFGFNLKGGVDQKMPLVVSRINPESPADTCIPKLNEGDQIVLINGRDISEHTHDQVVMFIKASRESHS

pKd | Binder
below the threshold | B1
4.83 | B2
4.37 | B3

Molecular target: T8, RAPGEF6, Q8TEU7
Assay: holdup assay
Design: key: below the threshold = too weak to quantify, mostly under pKd 3.1 to 4
Settings: plain residues with an end cap or a label only (N-terminal biotin on a linker: ado-ado)

pKd | Binder
below the threshold | B1
below the threshold | B2
below the threshold | B3

Molecular target: SCRIB_2, Q14160
Assay: holdup assay
Design: key: below the threshold = too weak to quantify, mostly under pKd 3.1 to 4
Settings: plain residues with an end cap or a label only (N-terminal biotin on a linker: ado-ado)

Chain of SCRIB_2, Q14160 (Q14160 857-960): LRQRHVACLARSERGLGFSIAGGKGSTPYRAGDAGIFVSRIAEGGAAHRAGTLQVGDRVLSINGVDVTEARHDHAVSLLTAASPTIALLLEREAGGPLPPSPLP

pKd | Binder
below the threshold | B1
3.67 | B2
below the threshold | B3

Molecular target: T9, SHANK1, Q9Y566
Assay: holdup assay
Design: key: below the threshold = too weak to quantify, mostly under pKd 3.1 to 4
Settings: plain residues with an end cap or a label only (N-terminal biotin on a linker: ado-ado)

pKd | Binder
below the threshold | B1
4.39 | B2
below the threshold | B3

Molecular target: T10, TJP3_3, O95049
Assay: holdup assay
Design: key: below the threshold = too weak to quantify, mostly under pKd 3.1 to 4
Settings: plain residues with an end cap or a label only (N-terminal biotin on a linker: ado-ado)

pKd | Binder
below the threshold | B1
below the threshold | B2
3.98 | B3
